This note sets out measurements from publication PMC4750992, “A New Mutation, hap1-2, Reveals a C Terminal Domain Function in AtMago Protein and Its Biological Effects in Male Gametophyte Development in Arabidopsis thaliana” (PLoS ONE, 2016).

In the experiment the target is T1, His-AteIF4AIII (Arabidopsis thaliana, UniProt Q94A52 1-408).
T1 construct: AteIF4AIII, Arabidopsis thaliana; cDNA amplified from qrt cDNAs with primers AteIF4AIIIFNdeI and AteIF4AIIIRSalI; Vector pET16b; also called His-eIF4AIII; source: E. coli BL21 (DE3) (pET16b), purified and eluted with ProBond beads
Description: pull-down; MBP, MBP-AtMago or MBP-AtMagoΔC kept on amylose beads; purified His-Y14 or His-eIF4AIII diluted in Column Buffer (200 mM NaCl, 1 mM EDTA, 20 mM Tris-HCl, pH 7.4), 300 μL, on ice 1 hour; three washes; Western blot with anti-His or anti-MBP. The following applies: both partners purified.

T1 sequence (Q94A52 whole entry): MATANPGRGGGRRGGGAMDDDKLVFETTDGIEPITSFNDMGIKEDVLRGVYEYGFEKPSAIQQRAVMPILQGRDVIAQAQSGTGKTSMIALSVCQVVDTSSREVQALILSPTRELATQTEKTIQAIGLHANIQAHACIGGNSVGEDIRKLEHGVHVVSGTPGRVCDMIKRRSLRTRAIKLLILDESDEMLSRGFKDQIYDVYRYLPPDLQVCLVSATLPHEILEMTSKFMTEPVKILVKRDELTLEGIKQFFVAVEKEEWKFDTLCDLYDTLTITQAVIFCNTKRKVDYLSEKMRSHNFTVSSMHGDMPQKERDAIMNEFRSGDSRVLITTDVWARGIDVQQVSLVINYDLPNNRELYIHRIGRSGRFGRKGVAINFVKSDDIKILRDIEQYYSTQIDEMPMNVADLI

B1: MBP-AtMago (natural protein, Arabidopsis thaliana, UniProt O23676 1-150, looked up)
chain: MAAEEATEFYLRYYVGHKGKFGHEFLEFEFREDGKLRYANNSNYKNDTIIRKEVFLTPAVLKECKRIVSESEILKEDDNNWPEPDRVGKQELEIVLGNEHISFATSKIGSLVDCQSSNDPEGLRIFYYLVQDLKCLVFSLISLHFKIKPI
notes: AtMago (HAP1), Arabidopsis thaliana, full length protein of 150 amino acids; cDNA amplified from qrt;HAP1/hap1-2 cDNAs; Cloned BamHI/HindIII into pMAL-c2; also called HAP1; HAPLESS1
For the molecule B1, the binding result is reported as “binds”.
